B1: EPB41L3 (parent)
chain: GSKFRYSGRTQAQTRRASALIDRP
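Further: lentivirally expressed fusions sorted by FACS into six bins by GFP to DsRed ratio, PSI derived from sequencing read proportions per bin multiplied by bin number.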

Variants of B1 are the subject of the data set. Description: protein stability index of a GFP-peptide fusion (GPS, HEK-293T) (PSI 1-6); higher = more stable. The conditions noted are these: c terminus: a fixed tail appended.
Regarding GSKFRYSGRSQAQTRRASALIDRP [T10S], the protein stability index is 2.83.
Then GSKFRYSGRYQAQTRRASALIDRP [T10Y], with 2.39; and GSKFRYSGRCQAQTRRASALIDRP [T10C], with 1.97.
Then GSKFRYSGRQQAQTRRASALIDRP [T10Q], with 3.1; and GSKFRYSGRMQAQTRRASALIDRP [T10M], with 2.39; and GSKFRYSGRAQAQTRRASALIDRP [T10A], with 2.97.
GSKFRYSGREQAQTRRASALIDRP [T10E]: the protein stability index was found to be 3.01.
Then GSKFRYSGRVQAQTRRASALIDRP [T10V], with 2.84.
For the variant GSKFRYSGRFQAQTRRASALIDRP [T10F], the protein stability index stood at 2.68.
Next, GSKFRYSGRKQAQTRRASALIDRP [T10K]: 3.89.
Take GSKFRYSGRWQAQTRRASALIDRP [T10W]: the protein stability index is 1.82.
Consider GSKFRYSGRLQAQTRRASALIDRP [T10L], for which the protein stability index came out at 3.1.
Then GSKFRYSGRHQAQTRRASALIDRP [T10H], with 3.27.
Then GSKFRYSGRDQAQTRRASALIDRP [T10D], with 3.56.
Next, GSKFRYSGRRQAQTRRASALIDRP [T10R]: 3.62; GSKFRYSGRPQAQTRRASALIDRP [T10P]: 3.74; GSKFRYSGRNQAQTRRASALIDRP [T10N]: 3.19.
Take GSKFRYSGRIQAQTRRASALIDRP [T10I]: the protein stability index was 2.37.
Next, GSKFRYSGRGQAQTRRASALIDRP [T10G]: 3.66; GSKFRYSGDTQAQTRRASALIDRP [R9D]: 3.52; GSKFRYSGPTQAQTRRASALIDRP [R9P]: 3.87.
Then GSKFRYSGATQAQTRRASALIDRP [R9A], with 2.88.
Then GSKFRYSGQTQAQTRRASALIDRP [R9Q], with 3.32; and GSKFRYSGNTQAQTRRASALIDRP [R9N], with 3.7; and GSKFRYSGGTQAQTRRASALIDRP [R9G], with 3.32.
With GSKFRYSGSTQAQTRRASALIDRP [R9S], the protein stability index turned out to be 3.44.
Next, GSKFRYSGMTQAQTRRASALIDRP [R9M]: 2.85; GSKFRYSGVTQAQTRRASALIDRP [R9V]: 2.85; GSKFRYSGWTQAQTRRASALIDRP [R9W]: 2.33.
Then GSKFRYSGTTQAQTRRASALIDRP [R9T], with 3.01; and GSKFRYSGLTQAQTRRASALIDRP [R9L], with 2.92; and GSKFRYSGETQAQTRRASALIDRP [R9E], with 3.53.
Next, GSKFRYSGCTQAQTRRASALIDRP [R9C]: 2.94; GSKFRYSGFTQAQTRRASALIDRP [R9F]: 2.81; GSKFRYSGYTQAQTRRASALIDRP [R9Y]: 2.4.
Turning to GSKFRYSGHTQAQTRRASALIDRP [R9H], the protein stability index was determined as 2.93.
Then GSKFRYSGKTQAQTRRASALIDRP [R9K], with 2.97; and GSKFRYSGITQAQTRRASALIDRP [R9I], with 2.81.
Next, GSKFRYNGRTQAQTRRASALIDRP [S7N]: 3.05; GSKFRYQGRTQAQTRRASALIDRP [S7Q]: 2.86.
Next, GSKFRYMGRTQAQTRRASALIDRP [S7M]: 3.35.
As for GSKFRYPGRTQAQTRRASALIDRP [S7P], the protein stability index was determined as 3.36.
Take GSKFRYIGRTQAQTRRASALIDRP [S7I]: the protein stability index turned out to be 1.95.
Then GSKFRYKGRTQAQTRRASALIDRP [S7K], with 3.79; and GSKFRYTGRTQAQTRRASALIDRP [S7T], with 2.95; and GSKFRYLGRTQAQTRRASALIDRP [S7L], with 3.08.
Next, GSKFRYWGRTQAQTRRASALIDRP [S7W]: 2.4.
Then GSKFRYVGRTQAQTRRASALIDRP [S7V], with 2.15.
For GSKFRYHGRTQAQTRRASALIDRP [S7H], the protein stability index came to 2.94.
Then GSKFRYYGRTQAQTRRASALIDRP [S7Y], with 2.71; and GSKFRYRGRTQAQTRRASALIDRP [S7R], with 3.73.
Then GSKFRYSGRTCAQTRRASALIDRP [Q11C], with 2.6.
Next, GSKFRYSGRTSAQTRRASALIDRP [Q11S]: 2.18; GSKFRYSGRTDAQTRRASALIDRP [Q11D]: 3.09; GSKFRYSGRTFAQTRRASALIDRP [Q11F]: 2.45.
As for GSKFRYSGRTRAQTRRASALIDRP [Q11R], the protein stability index is 3.78.
Regarding GSKFRYSGRTTAQTRRASALIDRP [Q11T], the protein stability index came to 2.57.
Next, GSKFRYSGRTWAQTRRASALIDRP [Q11W]: 1.75; GSKFRYSGRTPAQTRRASALIDRP [Q11P]: 3.46.
Then GSKFRYSGRTEAQTRRASALIDRP [Q11E], with 3.29; and GSKFRYSGRTVAQTRRASALIDRP [Q11V], with 2.78.
Then GSKFRYSGRTMAQTRRASALIDRP [Q11M], with 1.94; and GSKFRYSGRTYAQTRRASALIDRP [Q11Y], with 2.64.
With GSKFRYSGRTKAQTRRASALIDRP [Q11K], the protein stability index worked out at 3.11.
Next, GSKFRYSGRTAAQTRRASALIDRP [Q11A]: 2.86; GSKFRYSGRTHAQTRRASALIDRP [Q11H]: 2.85.
Then GSKFRYSGRTGAQTRRASALIDRP [Q11G], with 3.16; and GSKFRYSGRTIAQTRRASALIDRP [Q11I], with 2.95.
Then GSKFRYSGRTNAQTRRASALIDRP [Q11N], with 3; and GSKFRYSGRTLAQTRRASALIDRP [Q11L], with 2.5; and GSKFRYSGRTQFQTRRASALIDRP [A12F], with 2.04.
Consider GSKFRYSGRTQGQTRRASALIDRP [A12G], for which the protein stability index is 3.11.
Then GSKFRYSGRTQEQTRRASALIDRP [A12E], with 3.2; and GSKFRYSGRTQCQTRRASALIDRP [A12C], with 3.32.
Next, GSKFRYSGRTQDQTRRASALIDRP [A12D]: 3.37.
Then GSKFRYSYRTQAQTRRASALIDRP [G8Y], with 2.7.
For GSKFRYSERTQAQTRRASALIDRP [G8E], the protein stability index was found to be 3.52.
Next, GSKFRYSMRTQAQTRRASALIDRP [G8M]: 3.88; GSKFRYSSRTQAQTRRASALIDRP [G8S]: 3.46; GSKFRYSIRTQAQTRRASALIDRP [G8I]: 2.93.
Then GSKFRYSFRTQAQTRRASALIDRP [G8F], with 2.96; and GSKFRYSVRTQAQTRRASALIDRP [G8V], with 3.07.
Then GSKFRYSDRTQAQTRRASALIDRP [G8D], with 3.02; and GSKFRYSQRTQAQTRRASALIDRP [G8Q], with 3.39; and GSKFRYSCRTQAQTRRASALIDRP [G8C], with 1.72.
With GSKFRYSRRTQAQTRRASALIDRP [G8R], the protein stability index amounted to 4.01.
GSKFRYSNRTQAQTRRASALIDRP [G8N]: the protein stability index stood at 3.13.
Then GSKFRYSARTQAQTRRASALIDRP [G8A], with 3.41; and GSKFRYSTRTQAQTRRASALIDRP [G8T], with 4.1.
Next, GSKFRYSKRTQAQTRRASALIDRP [G8K]: 3.44.
Then GSKFRYSWRTQAQTRRASALIDRP [G8W], with 2.1; and GSKFRYSLRTQAQTRRASALIDRP [G8L], with 3.44.
With GSKFRYSHRTQAQTRRASALIDRP [G8H], the protein stability index was 2.95.
Then GSKFRYSPRTQAQTRRASALIDRP [G8P], with 3.43.

Source of the values: the supplement of paper PMC10567573.
